The values below come from patent US20050255113A1, “Methods and compositions for inhibiting polypeptide accumulation associated with neurological disorders” (New York State Department of Health and Abgenix, Inc., priority 1999, published 2005).

The subject of one series is cerebellar slices. The series is described as follows: Aggregation of model huntingtin-GFP polypeptides in biolistically transfected cerebellar slices. Type of series: cell-based, mice (P12 Balb). The following applies: examined after 24 h. As for the experimental part:
Organotypic slice cultures are made from P12-P14 cerebellum, cerebral cortex, or striatum, using published methods with minor modifications (1)(14). The brain is dissected from a mouse and placed in a beaker of high magnesium (1.8 mM CaCl2 and 2.4 mM MgCl2) HEPES-buffered Hanks' saline (HBHS) at 4° C. The brain is then blocked and mounted next to a 2% agarose block on a 1-cm^2 piece of Plexiglas (0.3 cm thick) with SuperGlue®. Dental wax mounts the plastic onto the slicing-chamber tissue-holder. After being mounted, the tissue is placed in the slicing chamber of the vibratome. The bath of the vibratome contains cooled high magnesium HBHS at 4° C. Temperature is maintained by a peltier thermoelectric refrigeration system attached to the slicing chamber (FHC, Brunswick, Me.). Three or 400 μm thick sections were sliced from the tissues of interest. As each new slice was made it was placed into growth medium at 4° C. until the collection of slices was complete. Slices from one preparation were then placed in an enclosed filter unit, and incubated at 37° C. for 1 hour in high magnesium artificial cerebral spinal fluid ([…], 0.33 mM KCl, 0.12 mM NaH2PO4, 2.5 mM NaHCO3, 1 mM dextrose, 2.4 mM MgCl2, 1.8 mM CaCl2; all items from Sigma®, St. Louis, Mo.). Solutions were constantly gassed with 95% O2 and 5% CO2. […]

In series [1] the test system is model huntingtin polypeptide (HD-25Q-GFP, pHD-104Q-GFP, HD-Q104-myc, GFP-HD-Q104). The series is described as follows: Intrabody retargeting of model huntingtin polypeptide in co-transfected COS-7 cells (immunofluorescence). It is filed as cell-based. On the procedure: COS 7 cells were grown on cover glass in 6-well plates (10^5 cells/well) and co-transfected at a ratio of 3:1 (sFv to target) with plasmids containing either N-HD-C4 sFv or a negative control sFv (containing an HA tag and SV40 nuclear localization sequence (NLS)) and plasmids containing GFP-targeted fusion proteins using 5 μl SuperFect transfection reagent (QIAGEN). At 24 hours post-transfection, cells were prepared for immunofluorescence as follows: cells were fixed with 4% paraformaldehyde and permeabilized with 0.2% triton-X100. To prevent non-specific binding of secondary antibodies, cells were blocked with 10% normal goat serum in 3% BSA.
The assay is designed such that both the target antigen, i.e., the model huntingtin polypeptide, and the intrabody can be visualized. In particular, the huntingtin polypeptide is visualized by detecting fluorescence emitted by the GFP domain of the huntingtin-GFP fusion polypeptide and the intrabodies tested are visualized using a rhodamine-conjugated antibody that can specifically bind to the intrabody.
The model HD target polypeptide was fused to c-myc (EQKLISEEDL (SEQ ID NO: 45)) epitope tag (HD-Q104-myc). The intrabodies sequences were fused to a HA tag and a SV40 nuclear localization signal (sFv-HA-NLS), so that bound antigens should be retargeted to the cell nuclei. At 48 hours post-transfection, cells were fixed and permeabilized. The HD-Q104-myc proteins were detectable using anti-myc epitope antibodies (i.e., MAb 9E10 IgG), followed by FITC-labeled goat anti-mouse IgG. The sFv-HA-NLS intrabodies were detected by polyclonal rabbit anti-HA IgG followed by rhodamine-conjugated goat anti-rabbit IgG antibodies.
FIGS. 13A-F show stably transfected COS-7 cells expressing α-Nt-HD-C4 sFv-HA-NLS which were further transfected with plasmids encoding either the model altered huntingtin polypeptide with 104 glutamine repeats (FIGS. 13B, D, F) or the model altered DRPLA polypeptide with 81 glutamine repeats (FIGS. 13A, C, E). Both model altered polypeptides were fused to GFP (GFP-HD-Q104 and GFP-DRPLA-Q81, respectively).

A further series has as its system GST-HD-25Q, GST-HD-42Q. The series is described as follows: Affinity purification of sFv with GST-fusion antigens (glutathione-Sepharose, SDS-PAGE, immunoblot). It is filed as binding. The following applies: 3 μg sFv with 4 μg antigen, 1 hr room temperature; Coomassie and immunoblot. On the procedure: About 3 ug of N-HD-C4 sFv was mixed with 4 ug of either GST-DRPLA-Q35 or GST-HD-Q25 or GST-HD-Q42 in PBS (200 μl final volume) and rocked for 1 h at RT. Twenty microliters of glutathione Sepharose 4B beads (50% slurry, pre-washed with PBS) was added and incubated for another 30 min at RT to capture the sFv/GST fusion protein complexes. The beads were harvested by centrifugation at 12,000×g for 10 sec and washed thrice with 1 ml PBS. The complexes were eluted with 10 μl of 50 mM Tris pH 8.0 containing 10 mM reduced glutathione for 10 min at RT. Tubes were then centrifuged at 12,000×g for 1 min and the supernatants containing the soluble complexes were transferred to new tubes, mixed with an equal volume of 2× SDS-sample buffer and heated at 95° C. before being loaded on SDS-PAGE.
About 3 μg of each clone were incubated in solution for 1 hour at room temperature with 4 ug of either GST-DRPLA-Q35, GST-HD-Q25 or GST-HD-Q42. Then, a 10 μl bed volume of glutathione-Sepharose 4B (Pharmacia) was added to each tube to precipitate the GST-fusion protein/sFv complexes. After 30 min incubation, tubes were centrifuged and the pellets washed 3 times with 1 ml PBS. The complexes were eluted from glutathione-Sepharose beads by addition of 10 mM reduced glutathione to the pellets.
After centrifugation, supernatants containing the eluted complexes were transferred to new tubes and mixed with an equal volume of 2× SDS-loading buffer. The samples were boiled and the proteins separated on a 12% SDS-PAGE. Protein bands were visualized by Coomassie blue staining, and/or transferred to nitrocellulose membranes in order to detect the sFv molecules by immunoblot.
The binding specificities of the selected sFv clones were tested by affinity binding to a full range of antigens, as follows: (a) using sample numbers that correspond to the experimental results in FIGS. 9 and 10, about 3 μg of α-Nt-HD-C4 sFv clone 1 (lanes 2-4) or α-Nt-HD-C4 sFv clone 2 (lanes 5-7) were mixed with 4 μg of the following antigens and incubated in solution for 1 hr at room temperature (lanes 2 and 5) GST-DRPLA-35Q, (lanes 3 and 6) GST-HD-25Q, (4 and 7) GST-HD-42Q; (b) a 10 μl bed volume of glutathione-Sepharose 4B (Pharmacia) was added to each tube to bind all GST-containing protein complexes; the beads were washed with 10 mM glutathione solution, which eluted the GST-antigen or the sFv-antigen complex, and these eluates were analyzed by SDS-PAGE. Protein bands were visualized by Coomassie blue staining (FIG. 9) and were also transferred to nitrocellulose membranes in order to detect the sFv molecules by immunoblot blot (FIG. 10).
For orientation: In western blotting, separated proteins are transferred to a membrane and probed.

Another series relates to COS-7 cells. The series is described as follows: Aggregation and cell death of model huntingtin-GFP fusion polypeptides expressed in COS-7 cells. It is filed as cell-based, Primate. The text has this:
In order to determine the effects of intracellular polypeptide aggregation, cells expressing a polypeptide representing normal huntingtin polypeptide as compared to cells expressing a huntingtin polypeptide representing the polypeptide found in patients with Huntington's disease was examined. Primate cells (COS-7) were transfected with plasmid constructs encoding a model huntingtin-GFP fusion polypeptide representing the normal polypeptide or an altered huntingtin polypeptide associated with disease having 47, 72, or 104 glutamine residues. Within 24 h of transfection, a large number of the cells express the huntingtin polypeptide as indicated by the GFP tag fused to each of the test proteins. Observations were recorded at three time points (see Table 4).
Using fluorescence microscopy, it was observed that cells that express the huntingtin-GFP polypeptide with 104 glutamine residues (FIG. 3D) harbor large, brilliant aggregates. […] In cells expressing a model huntingtin polypeptide with fewer glutamine residues (72Q), extremely bright and more variable aggregates are seen, with slightly less cell death. And in cells expressing a model huntingtin polypeptide with 47 glutamine residues, the fluorescence intensity was less and more diffuse.

B1: 72Q: model huntingtin-GFP fusion polypeptide with 72 glutamine residues; SEQ ID NO: 13 (protein)
chain: MATLEKLMKAFESLKSFQQQQQQQQQQQQQQQQQQQQQQQQQQQQQQQQQQQQQQQQQQQQQQQQQQQQQQQQQQQQQQQQQQQQQQQQ
As for B1, the “aggregates in brain tissue” value in the series with cerebellar slices is on record as “smaller, more discrete aggregates”.

B2: α-Nt-HD-C4 sFv-NLS: huntingtin-specific C4 sFv intrabody fused to HA tag and SV40 nuclear localization signal (protein)
scFv: QVQLQESGGGLVQPGGSLRLSCAASGFTFSSYSMSWVRQAPGKGLEWVAVISYDGSNKYYADSVKGRFTISRDNSKNTLYLQMNSLRAEDTAVYYCARDRYFDLWGRGTLVTVSSGGGGSGGGGSGGGGSQSALTQPASVSGSPGQSITISCTGTSSDIGAYNYVSWYQQYPGKAPKLLIYDVSNRPSGISNRFSGSKSGDTASLTISGLQAEDEADYYCSSFANSGPLFGGGTKVTVLYPYDVPDYATPPLLLRLV
For the molecule B2, in series [1] (COS-7, 48 hours post-transfection), the “relocation of HD-Q104-myc” value is listed as “able to relocate the model altered huntingtin polypeptide HD-Q104-myc from the cytosol to the nucleus”. For the same molecule, in series [1] (COS-7 co-transfection), the “retargeting of HD-25Q-GFP” value was “can retarget the distribution of huntingtin polypeptide to the nucleus”. In series [1] (COS-7 stably expressing the intrabody), the “colocalization with GFP-HD-Q104 in cell nuclei” value is reported as “clearly shows specificity to GFP-HD-Q104”.

B3: α-Nt-HD-C4 sFv clone 1: subclone 1 of α-Nt-HD-C4 sFv expressed in bacteria and purified on Ni-NTA (protein)
scFv: QVQLQESGGGLVQPGGSLRLSCAASGFTFSSYSMSWVRQAPGKGLEWVAVISYDGSNKYYADSVKGRFTISRDNSKNTLYLQMNSLRAEDTAVYYCARDRYFDLWGRGTLVTVSSGGGGSGGGGSGGGGSQSALTQPASVSGSPGQSITISCTGTSSDIGAYNYVSWYQQYPGKAPKLLIYDVSNRPSGISNRFSGSKSGDTASLTISGLQAEDEADYYCSSFANSGPLFGGGTKVTVL
modifications: left off: small tags and cut ends
notes: subclone 1 of α-Nt-HD-C4 sFv expressed in bacteria and purified on Ni-NTA
As to B3, the “sFv co-purified with antigens containing the Nt-HD sequence” value with GST-HD-25Q, GST-HD-42Q is “binding only the HD flanking peptide”.

B4: α-Nt-HD-C4 sFv clone 2: subclone 2 of α-Nt-HD-C4 sFv expressed in bacteria and purified on Ni-NTA (protein)
scFv: QVQLQESGGGLVQPGGSLRLSCAASGFTFSSYSMSWVRQAPGKGLEWVAVISYDGSNKYYADSVKGRFTISRDNSKNTLYLQMNSLRAEDTAVYYCARDRYFDLWGRGTLVTVSSGGGGSGGGGSGGGGSQSALTQPASVSGSPGQSITISCTGTSSDIGAYNYVSWYQQYPGKAPKLLIYDVSNRPSGISNRFSGSKSGDTASLTISGLQAEDEADYYCSSFANSGPLFGGGTKVTVL
modifications: left off: small tags and cut ends
notes: subclone 2 of α-Nt-HD-C4 sFv expressed in bacteria and purified on Ni-NTA
As to B4, the “sFv co-purified with antigens containing the Nt-HD sequence” value in the series with GST-HD-25Q, GST-HD-42Q is recorded as “binding only the HD flanking peptide”.

B5: 47Q: model huntingtin-GFP fusion polypeptide with 47 glutamine residues; SEQ ID NO: 12 (protein)
chain: MATLEKLMKAFESLKSFQQQQQQQQQQQQQQQQQQQQQQQQQQQQQQQQQQQQQQQQQQQQQQQ
Regarding B5, in the series on COS-7 cells (24 h after transfection), the “fluorescence pattern / aggregation / cell death” value is “diffuse, bright”.

B6: 104Q: model huntingtin-GFP fusion polypeptide with 104 glutamine residues; SEQ ID NO: 14 (protein)
chain: MATLEKLMKAFESLKSFQQQQQQQQQQQQQQQQQQQQQQQQQQQQQQQQQQQQQQQQQQQQQQQQQQQQQQQQQQQQQQQQQQQQQQQQQQQQQQQQQQQQQQQQQQQQQQQQQQQQQQQQ
On to B6, for which the “fluorescence pattern / aggregation / cell death” value in the series on COS-7 cells (72 h after transfection) is “substantial death”. Besides, the “aggregates in brain tissue” value in the series with cerebellar slices is on record as “large aggregates”.
